First the molecules themselves.
B1: Ubiquitin-like modifier-activating enzyme ATG7 (Saccharomyces cerevisiae), P38862 (parent)
chain: MSSERVLSYAPAFKSFLDTSFFQELSRLKLDVLKLDSTCQPLTVNLDLHNIPKSADQVPLFLTNRSFEKHNNKRTNEVPLQGSIFNFNVLDEFKNLDKQLFLHQRALECWEDGIKDINKCVSFVIISFADLKKYRFYYWLGVPCFQRPSSTVLHVRPEPSLKGLFSKCQKWFDVNYSKWVCILDADDEIVNYDKCIIRKTKVLAIRDTSTMENVPSALTKNFLSVLQYDVPDLIDFKLLIIRQNEGSFALNATFASIDPQSSSSNPDMKVSGWERNVQGKLAPRVVDLSSLLDPLKIADQSVDLNLKLMKWRILPDLNLDIIKNTKVLLLGAGTLGCYVSRALIAWGVRKITFVDNGTVSYSNPVRQALYNFEDCGKPKAELAAASLKRIFPLMDATGVKLSIPMIGHKLVNEEAQHKDFDRLRALIKEHDIIFLLVDSRESRWLPSLLSNIENKTVINAALGFDSYLVMRHGNRDEQSSKQLGCYFCHDVVAPTDSLTDRTLDQMCTVTRPGVAMMASSLAVELMTSLLQTKYSGSETTVLGDIPHQIRGFLHNFSILKLETPAYEHCPACSPKVIEAFTDLGWEFVKKALEHPLYLEEISGLSVIKQEVERLGNDVFEWEDDESDEIA
partner: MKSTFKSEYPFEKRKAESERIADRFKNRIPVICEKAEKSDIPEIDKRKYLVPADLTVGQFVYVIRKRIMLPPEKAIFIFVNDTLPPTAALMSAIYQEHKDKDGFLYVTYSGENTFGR
B2: Autophagy-related protein 8 (Saccharomyces cerevisiae), P38182 (parent)
chain: B1 partner
partner: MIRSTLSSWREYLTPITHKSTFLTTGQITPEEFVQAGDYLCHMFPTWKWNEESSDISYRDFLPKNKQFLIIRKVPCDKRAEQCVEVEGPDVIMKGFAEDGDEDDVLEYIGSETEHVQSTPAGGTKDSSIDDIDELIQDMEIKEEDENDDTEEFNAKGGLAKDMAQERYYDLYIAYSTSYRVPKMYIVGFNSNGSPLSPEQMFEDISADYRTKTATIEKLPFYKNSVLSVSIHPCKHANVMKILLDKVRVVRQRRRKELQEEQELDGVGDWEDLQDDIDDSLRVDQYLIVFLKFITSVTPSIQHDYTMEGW
B3: Autophagy-related protein 8 (Saccharomyces cerevisiae), P38182 (parent)
chain: B1 partner
partner: B1 chain

Results on nine variants are retold here after IntAct's records for PubMed 22056771.

Variants of B1 are the subject of one experiment. The conditions noted are these: with atg8_yeast ATG8, P38182.
Turning to E612R, the “effect of a mutation on the interaction” value is “decreasing interaction strength”.
On the same count and under the same terms, the result for E612Q reads “decreasing interaction strength”; that for E612A, “decreasing interaction strength”.

Variants of B2 are the subject of another experiment. The conditions noted are these: with atg3_yeast ATG3, P40344.
In the case of Y62K, the “effect of a mutation on the interaction” value is “disrupting interaction”.

The next experiment covers variants of B3. To be noted: with atg7_yeast ATG7, P38862.
For Y62K, the “effect of a mutation on the interaction” value is “disrupting interaction”.

The variants in the next experiment derive from B3. To be noted: with atg7_yeast ATG7, P38862. This is another data set of the same source.
In the case of Y62K, the “effect of a mutation on the interaction” value was “disrupting interaction strength”.
On the same count and under the same terms, the result for Y62A reads “disrupting interaction strength”; that for K66E, “decreasing interaction strength”; that for K66A, “decreasing interaction strength”.
On the same count and under the same terms, the same measure for Y62A;K66A: “disrupting interaction”.
